According to patent publication US10925971B2, “Methods of treating PRLR positive breast cancer” (Regeneron Pharmaceuticals, Inc., priority 2016, dated 2021):

Legend:
[1] = system: human PRLR in HEK293/hPRLR/STAT5-Luc cells; assay: STAT5-Luc reporter assay, blocking of PRL-mediated receptor activation (5 nM PRL); format: cell-based; settings: read-out: IC50 of Blocking 5 nM PRL; 5 nM constant PRL, 6 hr at 37° C.
From the text: The ability of anti-PRLR antibodies to block prolactin (PRL)-mediated receptor activation was examined in a luciferase-based reporter assay. The endocrine hormone PRL binds to the extracellular domain of its cognate receptor PRLR, triggering rapid homodimerization and activating several downstream signaling cascades.
In this example, an engineered cell line was used to determine the ability of anti-PRLR antibodies to block ligand activation of the PRLR receptor. Briefly, HEK293/hPRLR/STAT5-Luc cell lines with stable incorporation of a human PRLR expression cassette and the STAT5-dependent luciferase reporter were generated via sequential rounds of Lipofectamine® 2000-mediated transfection (LifeTechnologies, Carlsbad, Calif.). Cells were selected for at least two weeks in the presence of 500 μg/mL G418 (hPRLR) and 100 μg/mL hygromycin B (STAT5-Luc). The STAT5-Luc assay utilized 2×10^5 HEK293/hPRLR/STAT5-Luc cells seeded in complete growth medium on PDL-coated 96 well plates grown overnight at 37° C., 5% CO2. To generate antibody inhibition curves, cells were incubated (6 hr at 37° C.) with serially diluted anti-human PRLR antibodies (100 nM to 24 pM) in the presence of 5 nM constant PRL before recording signal. PRL dose response curves were generated by the addition of serially diluted PRL (100 nM to 24 pM) to cells and recording signal after a 6 hr (37° C.) incubation in the absence of antibodies. The ability of the antibodies to activate PRLR in the absence of ligand was also assessed.
Luciferase activity was measured with ONE-Glo™ reagent (Promega, Madison, Wis.). Relative light units (RLUs) were measured on a Victor luminometer (Perkin Elmer, Shelton, Conn.). EC50/IC50 values were determined from a four-parameter logistic equation over an 8-point response curve using GraphPad Prism. Percent blocking and percent activation are reported for the highest antibody dose.

[2] = system: MCF7 tumors; assay: MCF7 breast tumor xenograft, tumor volume; format: in vivo, NCr nude mice
Description: (§1) After MCF7 or MCF7/PRLR tumors reached an average volume of ˜150-200 mm^3 (14-16 days post implantation), mice were randomized into treatment groups (n=8-9 mice/group) and received a single dose or three once-weekly doses of H1H6958N2-DM1, control ADC, or vehicle control, administered systemically by intravenous tail-vein injection. Tumor size and body weight were measured in vivo twice per week throughout the duration of the study.
(§2) The T47Dv11 model was used to assess the activity of H1H6958N2-DM1 in a model with significant levels of endogenous PRLR. As parental T47D cells are poorly tumorigenic, in vivo passaging was employed to develop a variant with consistent tumorigenicity. Initially, 10×10^6 parental T47D cells were implanted subcutaneously (SC) into the left flank of female C.B.-17 SCID mice (Taconic, Hudson N.Y.). Tumors were supplemented with a 90-day release 1.7 mg estrogen pellet (Innovative Research America). Where T47D tumors were observed, they were excised and cut into 3 mm fragments and subsequently implanted into the left flank of separate female C.B.-17 SCID mice. Subsequent passaging was performed until a large tumor was disaggregated into a single cell suspension. The cells (named T47Dv11) from this tumor were then cultured in vitro and expanded. […] For efficacy studies, mice were implanted with 7.5×10^6 T47Dv11 cells into the left flank of female C.B.-17 SCID mice supplemented with a 90-day release 0.72 mg/pellet estrogen pellet. For MCF7 and MCF7/PRLR tumor xenografts, 2×10^7 MCF7/PRLR cells were implanted SC into the left mammary fat pad of female NCr nude mice (7-8 weeks old) supplemented with 90-day release 0.72 mg/pellet estrogen pellets. Tumors were measured with calipers twice a week for the duration of each study. Tumor volume was calculated using the formula TV=(length×width^2)/2.

[3] = system: MCF7/PRLR tumors; assay: MCF7/PRLR breast tumor xenograft, tumor volume (Example 13); format: in vivo, NCr nude mice
Description: as §1
as §2, with “As parental T47D cells are poorly tumorigenic, in vivo passaging was employed to develop a variant with consistent tumorigenicity.” left out

[4] = system: T47Dv11 tumors; assay: T47Dv11 breast tumor xenograft, single agent and combination with fulvestrant; format: in vivo, C.B.-17 SCID mice
Description: as §2, with “As parental T47D cells are poorly tumorigenic, in vivo passaging was employed to develop a variant with consistent tumorigenicity.” left out
as §1, with “T47Dv11” for “MCF7 or MCF7/PRLR”, “injection. […]” for “injection.”
Next, the combination of H1H6958N2-DM1 with the SERD fulvestrant was tested in the T47Dv11 xenograft model. Here, the activity of either agent at partially effective doses was compared against the activity of the agents in combination. First, a dose titration study of weekly administration of fulvestrant was performed in order to establish its single agent activity (FIG. 4).
For the subcutaneous tumors, average tumor size as well as tumor growth inhibition relative to the Vehicle treated group were calculated for each group. Tumors were measured with calipers twice a week until the average size of the vehicle group reached 1200 mm^3. Tumor size was calculated using the formula (length×width^2)/2. For all studies, tumor growth inhibition was calculated according to the following formula: (1−((Tfinal−Tinitial)/(Cfinal−Cinitial)))*100, where T (treated group) and C (control group) represent the mean tumor mass on the day the vehicle group reached 1000 mm^3.

B1: H1H6774P: fully human anti-PRLR antibody, human IgG1 Fc; HCVR/LCVR SEQ ID NOs 34/42 (antibody, V domains shown)
VH: EVQLVESGGGLAQPGGSLRLSCVASGFTFSTYWMSWVRQAPGKGLDWVGNIKQDGSEQNYVDSVRGRFTISRDNAKNSLFLQMNSLRAEDTGVYYCATLLTKGDYWGQGTLVTVSS
VL: DIQMTQSPSSLSASVGDSVTITCRASQDISNYLDWFQQKPGKAPKSLIYAASILQGGVPSRFSGSGYGTDFTLTISSLQPEDFATYYCRQYKTYPFTFGPGTKVDIK
[1]
  IC50: > 100 nM

B2: H1H6795P: fully human anti-PRLR antibody, human IgG1 Fc; HCVR/LCVR SEQ ID NOs 162/170 (antibody, V domains shown)
VH: QVQLVQSGAEVKKPGASVKVSCKASGYTFGTSGITWVRQAPGQGLEWMGWSSAYNGKTDYAQKFQDRVTMTTDTSTTTGYMEMRSLTSDDTAVYYCTTVVRRPFDFWGQGTLVTVSS
VL: DIQMTQSPSSLSASVGDRVTITCRASQDINNFLAWFQQKPGKAPKSLIYAASSLQSGVPSKFSGGGSGTDFALTISSLQPEDFATYYCQQYSSYPITFGQGTRLEIK
[1]
  IC50: > 100 nM

B3: H1H6797P: fully human anti-PRLR antibody, human IgG1 Fc; HCVR/LCVR SEQ ID NOs 178/186 (antibody, V domains shown)
VH: EVQLVESGGGLVQPGGSLRLSCIVSGFTFSGSWMSWVRQLPGKGLEWVANIKEDGSDSYYVDSVEGRFTISRDNAKSSLYLQMNSLRVDDTAVYFCARARTVPLHYWGQGTLVTVSS
VL: DIQMTQSPSTLSASVGDRVTITCRASQSINIWLAWYQQKPGKAPKLLIYRASYLESGVPSSFAGGGSGTEFTLTISSLQPDDFGTYYCQHYNSYPFTFGQGTKLEIK
[1]
  IC50: > 100 nM

B4: H1H6958N2-DM1: anti-PRLR antibody H1H6958N2 conjugated to the maytansinoid DM1 through an SMCC linker (conjugate)
VH: QVQLVESGGGVVQPGRSLRLSCGASGFTFRNYGMQWVRQGPGKGLEWVTLISFDGNDKYYADSVKGRFTISRDNSKNTLFLQMNSLRTEDTAVYYCARGGDFDYWGQGTLVTVSS
VL: DIQMTQSPSSLSASVGDRVTITCRASQDIRKDLGWYQQKPGKAPKRLIYAASSLHSGVPSRFSGSGSGTEFTLTISSLQPEDFATYYCLQHNSYPMYTFGQGTKLEIK
[2]; repeat treatment (q7dx3), 10 and 15 mg/kg, relative to control ADC
  anti-tumor activity: significantly inhibited MCF7 tumor growth
[2]; single dose 15 mg/kg, relative to control ADC
  anti-tumor activity: significantly inhibited the growth of the MCF7 tumors
[2]; single dose of 5 or 10 mg/kg
  anti-tumor activity: moderate in vivo anti-tumor activity
[3]; single dose 10 and 15 mg/kg
  antitumor efficacy: eradication of the tumors
[3]; single dose at 2.5-15 mg/kg
  antitumor efficacy: significant antitumor efficacy observed at all doses
[3]; three once-weekly doses of 5 and 15 mg/kg
  antitumor efficacy: tumor eradication
[4]; T47DvII tumors in SCID mice, Day 70, 2.5 mg/kg
  Final Tumor Volume (mean ± SD): 386 ± 249 mm^3
[4]; combination study, individual treatment 2.5 mg/kg single dose
  anti-tumor activity: Significant anti-tumor activity
[4]; single dose 2.5 or 5 mg/kg
  tumor growth: significantly inhibited tumor growth
[4]; three doses of 5 or 15 mg/kg
  tumor growth: tumor regression

B5: H1H6958N2: anti-PRLR antibody, receptor blocking, human IgG1 Fc form of H2M6958N2 of Table 1; HCVR/LCVR SEQ ID NOs 290/298 (antibody, V domains shown)
VH: B4 VH
VL: B4 VL
[3]; MCF7/PRLR model, dose not stated
  antitumor efficacy of controls: failed to induce any inhibition of tumor growth
[4]; T47Dv11 model, dose not stated
  tumor growth, controls: no effect on tumor growth
